Measured values reported in patent US6953675.
Each block holds one substance with its values, some of them ahead of it.

What was measured:
[1] = molecular target: antigen of LL2 (not named; LL2 is called an anti-B-cell monoclonal antibody); test: competitive binding assay; format and target not stated
WN = test: competitive binding ELISA with WN as the surrogate Ag, from ID50 values
[2] = molecular target: antigen of LL2 (not named; LL2 is called an anti-B-cell monoclonal antibody); test: cell binding assay, calculated from the ID50 values; cells not named
[3] = molecular target: antigen of hMN14 (not named); test: competitive binding assay; format and target not stated

Substance: mLL2 F(ab')2, DTPA conjugated at random lysines (4.3 chelators/F(ab')2) (antibody)
Immunoreactivity (from ID50 against unmodified control F(ab')2) [1]: 21%

Substance: mLL2 F(ab')2, DTPA conjugated at random lysines (2.2 chelators/F(ab')2) (antibody)
Immunoreactivity (from ID50 against unmodified control F(ab')2) [1]: 75%

Substance: mLL2 F(ab')2, DTPA conjugated at the Vk-CHO (5.5 chelators/F(ab')2) (antibody)
Immunoreactivity (from ID50 against unmodified control F(ab')2) [1]: 100%

Substance: hMN14 F(ab')2 with the grafted LL2 Vk glycosylation site, LC-DTPA conjugated at the Vk-CHO (2.1 chelators/F(ab')2) (antibody)
Immunoreactivity (from ID50 against unmodified control F(ab')2) [3]: 100%

The remaining lines, values ahead:

Immunoreactivity (%), ELISA (WN): 42.2%
Immunoreactivity (%), Cell binding [2]: 41.9%
Substance: LL2 F(ab')2, DOX-dextran conjugated (5.1 DOX/F(ab')2) (antibody)

Immunoreactivity (from ID50 against unmodified control F(ab')2) [1]: 100%
Substance: mLL2 F(ab')2, LC-DTPA conjugated at the Vk-CHO (4.6 chelators/F(ab')2) (antibody)

Immunoreactivity (%), ELISA (WN): 100%
Immunoreactivity (%), Cell binding [2]: 100%
Substance: LL2 F(ab')2, non-conjugated (murine mAb, naturally glycosylated in the V domain) (antibody)
